According to patent US20140314789:

Molecular target: Flag-tagged calcineurin-defective (ΔCalna) CRTC2 (UniProt Q3U182)
Sequence (Q3U182 whole entry, looked up, stated change not applied): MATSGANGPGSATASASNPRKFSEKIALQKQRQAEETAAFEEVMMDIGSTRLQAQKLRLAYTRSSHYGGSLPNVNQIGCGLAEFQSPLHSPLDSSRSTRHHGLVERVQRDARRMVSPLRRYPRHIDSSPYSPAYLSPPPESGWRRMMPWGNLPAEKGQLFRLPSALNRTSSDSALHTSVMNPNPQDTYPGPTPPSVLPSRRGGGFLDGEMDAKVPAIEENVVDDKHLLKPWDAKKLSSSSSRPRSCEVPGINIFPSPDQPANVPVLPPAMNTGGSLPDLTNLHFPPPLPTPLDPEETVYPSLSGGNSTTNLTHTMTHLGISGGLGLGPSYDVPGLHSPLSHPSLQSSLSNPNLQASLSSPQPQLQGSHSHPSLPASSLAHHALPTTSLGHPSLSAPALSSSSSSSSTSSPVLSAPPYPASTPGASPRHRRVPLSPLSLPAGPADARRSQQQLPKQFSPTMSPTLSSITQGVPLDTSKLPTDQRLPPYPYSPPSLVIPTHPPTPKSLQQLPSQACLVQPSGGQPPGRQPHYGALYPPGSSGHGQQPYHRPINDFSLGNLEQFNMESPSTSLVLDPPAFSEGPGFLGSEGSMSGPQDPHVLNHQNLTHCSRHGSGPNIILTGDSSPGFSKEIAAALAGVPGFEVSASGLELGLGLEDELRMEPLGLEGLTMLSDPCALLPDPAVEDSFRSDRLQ

HA-tagged calcineurin A (Calna)
glucagon-dependent dephosphorylation of CRTC2, nuclear translocation, CRE-luc activation: mutation of both motifs disrupted the glucagon-dependent dephosphorylation of CRTC2 (FIG. 33B) and prevented its nuclear translocation (FIG. 38C), thereby down-regulating CRE-luc activation
